{"source": "patent US6689582B1", "about": "“Polynucleotide molecules encoding proteins having proteinase inhibitor activity” (Bayer Pharmaceuticals Corporation, priority 1999, dated 2004)", "origin": "cited, not measured here", "key": {"[1]": {"biological_target": "plasma kallikrein (Homo sapiens, UniProt P03952)", "sequence (P03952 20-638, species assumed)": "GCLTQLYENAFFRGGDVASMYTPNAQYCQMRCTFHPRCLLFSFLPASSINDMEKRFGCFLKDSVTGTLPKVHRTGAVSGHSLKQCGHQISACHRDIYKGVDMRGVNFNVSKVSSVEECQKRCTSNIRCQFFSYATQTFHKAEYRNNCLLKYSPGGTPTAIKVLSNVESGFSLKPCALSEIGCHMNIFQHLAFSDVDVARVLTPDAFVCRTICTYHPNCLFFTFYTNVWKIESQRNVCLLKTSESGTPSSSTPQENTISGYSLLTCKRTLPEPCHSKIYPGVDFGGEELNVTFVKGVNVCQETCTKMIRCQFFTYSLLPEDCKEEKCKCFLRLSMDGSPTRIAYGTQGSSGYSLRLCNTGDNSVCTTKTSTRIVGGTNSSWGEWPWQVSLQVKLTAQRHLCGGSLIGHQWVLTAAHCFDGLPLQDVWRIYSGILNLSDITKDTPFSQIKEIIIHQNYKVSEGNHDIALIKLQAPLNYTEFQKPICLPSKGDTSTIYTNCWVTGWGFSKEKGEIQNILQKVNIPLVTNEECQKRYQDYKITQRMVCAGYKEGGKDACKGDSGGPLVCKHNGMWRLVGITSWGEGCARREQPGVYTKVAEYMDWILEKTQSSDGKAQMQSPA"}, "[2]": {"biological_target": "T1, cathepsin G (Homo sapiens, UniProt P08311)", "T1 sequence (P08311 21-255)": "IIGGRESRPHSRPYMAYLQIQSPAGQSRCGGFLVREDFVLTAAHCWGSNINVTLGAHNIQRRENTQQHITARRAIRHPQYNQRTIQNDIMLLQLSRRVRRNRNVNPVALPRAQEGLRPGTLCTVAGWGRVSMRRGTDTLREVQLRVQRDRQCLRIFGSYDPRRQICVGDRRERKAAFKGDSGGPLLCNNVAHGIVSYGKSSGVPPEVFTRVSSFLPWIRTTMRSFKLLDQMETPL"}, "[3]": {"biological_target": "thrombin (Homo sapiens, UniProt P00734)"}, "[4]": {"biological_target": "T2, leukocyte elastase (Homo sapiens, UniProt P08246)", "T2 sequence (P08246 30-267)": "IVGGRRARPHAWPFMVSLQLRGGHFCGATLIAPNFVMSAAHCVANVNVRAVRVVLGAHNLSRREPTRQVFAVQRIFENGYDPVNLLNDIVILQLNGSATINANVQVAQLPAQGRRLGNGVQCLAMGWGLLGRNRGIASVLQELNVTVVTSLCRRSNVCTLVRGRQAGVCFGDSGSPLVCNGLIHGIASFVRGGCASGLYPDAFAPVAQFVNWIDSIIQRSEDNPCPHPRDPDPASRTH"}, "[5]": {"biological_target": "T3, proteinase 3 (Homo sapiens, UniProt P24158)", "T3 sequence (P24158 28-256)": "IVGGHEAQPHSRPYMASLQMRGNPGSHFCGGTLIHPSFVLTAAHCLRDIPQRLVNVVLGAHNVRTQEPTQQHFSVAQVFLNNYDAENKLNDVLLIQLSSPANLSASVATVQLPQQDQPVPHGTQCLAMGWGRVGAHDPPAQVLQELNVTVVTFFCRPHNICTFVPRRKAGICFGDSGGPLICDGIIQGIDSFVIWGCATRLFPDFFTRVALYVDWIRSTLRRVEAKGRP"}}, "note": "Read-outs that look alike come from different tables or passages of the source. Ends that are not written are not given here."}
{"molecule": "APP KD variant (T11D, P13H, M17A, I18H, S19P and F34Y): phage display derived plasma kallikrein inhibitor differing from APP KD at 6 key residues (VREVCSEQAEDGHCRAAHPRWYFDVTEGKCAPFYYGGCGGNRNNFDTEEYCMAVC; ends and bridges not checked; cysteine pairing not given here)", "values": [{"measurement": "Ki", "setting": "[1]", "result": "~0.015", "unit": "nM"}, {"measurement": "increase in binding affinity to plasma kallikrein compared to wild-type APP KD", "setting": "[1]", "result": "more than 10,000 fold"}]}
{"molecule": "Alpha-1-proteinase: serpin family serine proteinase inhibitor, major serum inhibitor of elastase and cathepsin G", "values": [{"measurement": "inhibition of cathepsin G (in words)", "setting": "[2]", "result": "inhibit"}, {"measurement": "inhibition of cathepsin G (in words)", "setting": "[2]; listed as Alpha 1-proteinase inhibitor", "result": "potent inhibitor"}]}
{"molecule": "alpha 1-proteinase inhibitor [Arg358]: P1 variant of alpha 1-proteinase inhibitor", "values": [{"measurement": "inhibition of thrombin (in words)", "setting": "[3]", "result": "potent inhibitor"}, {"measurement": "inhibition of leukocyte elastase (in words)", "setting": "[4]", "result": "not"}]}
{"molecule": "elafin: member of the mucous proteinase inhibitor family (AQEPVKGPVSTKPGSCPIILIRCAMLNPPNRCLKDTDCPGIKKCCEGSCGMACFVPQ; ends and bridges not checked; cysteine pairing not given here; UniProt P19957 61-117, looked up)", "values": [{"measurement": "inhibition of proteinase 3 (in words)", "setting": "[5]", "result": "not"}]}
{"molecule": "SLPI: member of the mucous proteinase inhibitor family (protein, UniProt P03973 26-132, looked up) Antileukoproteinase: SGKSFKAGVCPPKKSAQCLRYKKPECQSDWQCPGKKRCCPDTCGIKCLDPVDTPNPTRRKPGKCPVTYGQCLMLNPPNFCEMDGQCKRDLKCCMGMCGKSCVSPVKA", "values": [{"measurement": "inhibition of proteinase 3 (in words)", "setting": "[5]", "result": "not"}]}
{"molecule": "Alpha-1-antichymotrypsin: serpin family proteinase inhibitor, physiological cathepsin G inhibitor (protein, UniProt P01011 24-423, looked up) Alpha-1-antichymotrypsin: HPNSPLDEENLTQENQDRGTHVDLGLASANVDFAFSLYKQLVLKAPDKNVIFSPLSISTALAFLSLGAHNTTLTEILKGLKFNLTETSEAEIHQSFQHLLRTLNQSSDELQLSMGNAMFVKEQLSLLDRFTEDAKRLYGSEAFATDFQDSAAAKKLINDYVKNGTRGKITDLIKDLDSQTMMVLVNYIFFKAKWEMPFDPQDTHQSRFYLSKKKWVMVPMMSLHHLTIPYFRDEELSCTVVELKYTGNASALFILPDQDKMEEVEAMLLPETLKRWRDSLEFREIGELYLPKFSISRDYNLNDILLQLGIEEAFTSKADLSGITGARNLAVSQVVHKAVLDVFEEGTEASAATAVKITLLSALVETRTIVRFNRPFLMIIVPTDTQNIFFMSKVTNPKQA", "values": [{"measurement": "inhibition of proteinase 3 (in words)", "setting": "[5]", "result": "not"}]}
{"molecule": "placental bikunin: human Kunitz family inhibitor, potent inhibitor of plasmin (protein, UniProt O43291 28-252, looked up) Kunitz-type protease …: ADRERSIHDFCLVSKVVGRCRASMPRWWYNVTDGSCQLFVYGGCDGNSNNYLTKEECLKKCATVTENATGDLATSRNAADSSVPSAPRRQDSEDHSSDMFNYEEYCTANAVTGPCRASFPRWYFDVERNSCNNFIYGGCRGNKNSYRSEEACMLRCFRQQENPPLPLGSKVVVLAGLFVMVLILFLGASMVYLIRVARRNQERALRTVWSSGDDKEQLVKNTYVL", "values": [{"measurement": "inhibition of leukocyte elastase (in words)", "setting": "[4]", "result": "not"}]}
